T1: purified recombinant hTEM8(ED)-Fc fusion protein (Homo sapiens, UniProt Q9H6X2)
T1 sequence (Q9H6X2 33-321): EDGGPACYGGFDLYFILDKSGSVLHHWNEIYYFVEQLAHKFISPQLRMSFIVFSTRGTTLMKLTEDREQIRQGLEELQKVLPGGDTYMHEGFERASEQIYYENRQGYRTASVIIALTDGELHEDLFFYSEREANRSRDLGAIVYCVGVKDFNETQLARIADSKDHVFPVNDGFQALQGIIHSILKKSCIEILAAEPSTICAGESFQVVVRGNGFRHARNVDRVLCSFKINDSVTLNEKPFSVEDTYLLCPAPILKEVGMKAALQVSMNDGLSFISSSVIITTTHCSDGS

B1: L1 Fab: fully human anti-TEM8 Fab from phage display; VH SEQ ID NO: 2, VL SEQ ID NO: 7; Fab chains SEQ ID NOs: 26, 27 (antibody)
heavy: QVQLVESGGGLVQPGGSLRLSCAASGFTFNSYAMSWVRQAPGKGLEWVSLISSGSSTYYADSVKGRFTISRDNSKNTLYLQMNSLRAEDTAVYYCARAGFKFDNWGQGTLVTVSSASTKGPSVFPLAPSSKSTSGGTAALGCLVKDYFPEPVTVSWNSGALTSGVHTFPAVLQSSGLYSLSSVVTVPSSSLGTQTYICNVNHKPSNTKVDKKVEPKSEF
light: DIELTQPPSVSVAPGQTARISCSGDSIPNYSVSWYQQKPGQAPVLVIYADSNRPSGIPERFSGSNSGNTATLTISGTQAEDEADYYCQSYDNTSPDLVFGGGTKLTVLGQPKAAPSVTLFPPSSEELQANKATLVCLISDFYPGAVTVAWKADSSPVKAGVETTTPSKQSNNKYAASSYLSLTPEQWKSHRSYSCQVTHEGSTVEKTVAPTEA
modifications: Antibody sequence
B2: L2 Fab: fully human anti-TEM8 Fab from phage display; VH SEQ ID NO: 1, VL SEQ ID NO: 6; Fab chains SEQ ID NOs: 24, 25 (antibody)
heavy: QVQLKESGPALVKPTQTLTLTCTFSGFSLSTSGGGVSWIRQPPGKALEWLAHIYSNDDKSYSTSLKTRLTISKDTSKNQVVLTMTNMDPVDTATYYCARGGYFLDYWGQGTLVTVSSAKTTAPSVYPLAPVCGDTTGSSVTLGCLVKGYFPEPVTLTWNSGSLSSGVHTFPAVLQSDLYTLSSSVTVTSSTWPSQSITCNVAHPASSTKVDKKIEPRGPTIKPCPPCKCPAPNLLGGPSVFIFPPKIKDVLMISLSPIVTCVVVDVSEDDPDVQISWFVNNVEVHTAQTQTHREDYNSTLRVVSALPIQHQDWMSGKEFKCKVNNKDLPAPIERTISKPKGSVRAPQVYVLPPPEEEMTKKQVTLTCMVTDFMPEDIYVEWTNNGKTELNYKNTEPVLDSDGSYFMYSKLRVEKKNWVERNSYSCSVVHEGLHNHHTTKSFSRTPGK
light: DIELTQPPSVSVAPGQTARISCSGDNIGGIYVHWYQQKPGQAPVLVIYADSKRPSGIPERFSGSNSGNTATLTISGTQAEDEADYYCQSYDITSLVFGGGTKLTVLGQPKSTPTLTVFPPSSEELKENKATLVCLISNFSPSGVTVAWKANGTPITQGVDTSNPTKEGNKFMASSFLHLTSDQWRSHNSFTCQVTHEGDTVEKSLSPAECL
modifications: Antibody sequence
B3: L3 Fab: fully human anti-TEM8 Fab from phage display; VH SEQ ID NO: 3, VL SEQ ID NO: 8; Fab chains SEQ ID NOs: 28, 29 (antibody)
heavy: QVQLQQSGPGLVKPSQTLSLTCAISGDSVSTNGAAWGWIRQSPGRGLEWLGRIYYRSKWYNDYAVSVKSRITINPDTSKNQFSLQLNSVTPEDTAVYYCARMPGGFLFDLWGQGTLVTVSSASTKGPSVFPLAPSSKSTSGGTAALGCLVKDYFPEPVTVSWNSGALTSGVHTFPAVLQSSGLYSLSSVVTVPSSSLGTQTYICNVNHKPSNTKVDKKVEPKSEF
light: DIELTQPPSVSVAPGQTARISCSGDNIRSYYAHWYQQKPGQAPVLVIYGDSKRPSGIPERFSGSNSGNTATLTISGTQAEDEADYYCSSYASHDYVFGGGTKLTVLGQPKAAPSVTLFPPSSEELQANKATLVCLISDFYPGAVTVAWKADSSPVKAGVETTTPSKQSNNKYAASSYLSLTPEQWKSHRSYSCQVTHEGSTVEKTVAPTEA
modifications: Antibody sequence
B4: L5 Fab: fully human anti-TEM8 Fab from phage display; VH SEQ ID NO: 4, VL SEQ ID NO: 9; Fab chains SEQ ID NOs: 30, 31 (antibody)
heavy: QVQLVESGGGLVQPGGSLRLSCAASGFTFNSYGLSWVRQAPGKGLEWVSNISSNGSYTYYADSVKGRFTISRDNSKNTLYLQMNSLRAEDTAVYYCARAGYGLFDVWGQGTLVTVSSAKTTAPSVYPLAPVCGDTTGSSVTLGCLVKGYFPEPVTLTWNSGSLSSGVHTFPAVLQSDLYTLSSSVTVTSSTWPSQSITCNVAHPASSTKVDKKIEPRGPTIKPCPPCKCPAPNLLGGPSVFIFPPKIKDVLMISLSPIVTCVVVDVSEDDPDVQISWFVNNVEVHTAQTQTHREDYNSTLRVVSALPIQHQDWMSGKEFKCKVNNKDLPAPIERTISKPKGSVRAPQVYVLPPPEEEMTKKQVTLTCMVTDFMPEDIYVEWTNNGKTELNYKNTEPVLDSDGSYFMYSKLRVEKKNWVERNSYSCSVVHEGLHNHHTTKSFSRTPGK
light: DIELTQPPSVSVAPGQTARISCSGDKLREYYVHWYQQKPGQAPVLVIYGDNKRPSGIPERFSGSNSGNTATLTISGTQAEDEADYYCSSWAGSRSGTVFGGGTKLTVLGQPKSTPTLTVFPPSSEELKENKATLVCLISNFSPSGVTVAWKANGTPITQGVDTSNPTKEGNKFMASSFLHLTSDQWRSHNSFTCQVTHEGDTVEKSLSPAECL
modifications: Antibody sequence
B5: 1D2 Fab: fully human anti-TEM8 Fab from phage display; VH SEQ ID NO: 5, VL SEQ ID NO: 10; Fab chains SEQ ID NOs: 32, 33 (antibody)
heavy: QVQLKESGPALVKPTQTLTLTCTFSGFSLSTSGMGVSWIRQPPGKALEWLAHINLDDDKYYSTSLKTRLTISKDTSKNQVVLTMTNMDPVDTATYYCARGGYGDMDVWGQGTLVTVSSASTKGPSVFPLAPSSKSTSGGTAALGCLVKDYFPEPVTVSWNSGALTSGVHTFPAVLQSSGLYSLSSVVTVPSSSLGTQTYICNVNHKPSNTKVDKKVEPKSEF
light: DIELTQPPSVSVAPGQTARISCSGDNIRSMFVHWYQQKPGQAPVLVIYADNKRPSGIPERFSGSNSGNTATLTISGTQAEDEADYYCSSYDYNAHLVVFGGGTKLTVLGQPKAAPSVTLFPPSSEELQANKATLVCLISDFYPGAVTVAWKADSSPVKAGVETTTPSKQSNNKYAASSYLSLTPEQWKSHRSYSCQVTHEGSTVEKTVAPTEA
modifications: Antibody sequence

What was measured:
[1] = system: HCT-116 tumors; details: mouse, in vivo
[2] = target: TEM8 (CHO-TEM8 cells), binding of Anthrax PA (Homo sapiens, UniProt Q9H6X2)
[3] = target: T1, purified recombinant hTEM8(ED)-Fc fusion protein; test: ELISA of Fabs on TEM8(ED)-Fc
[4] = target: T2, human TEM8 (293/Flag-hTEM8 cells) (Homo sapiens, UniProt Q9H6X2); test: Flow cytometry / immunofluorescence binding to 293/Flag-hTEM8 cells; details: immunofluorescence staining and flow cytometry
T2 construct: expressed in transfected cells
Protocol: 293 cells were obtained from ATCC. 293 cells were cultured in DMEM supplemented with 10% FBS. 293 cells expressing mouse (293-mTEM8) or a flag-tagged human TEM8 (293/Flag-huTEM8) were generated by lipofectamine 2000 mediated stable transfection of 293 cells with a mTEM8/pcDNA3 or a Flag-huTEM8/pcDNA3 expression vector (Yang et al., Biochim Biophys Acta 1813(1):39-49, 2011).
(§1) Trypsinized cells were rinsed in cold PBS/0.5% BSA (PBS/BSA) and labeled with anti-TEM8 Fabs (human) or full IgG (human-mouse) primary antibodies in PBS/BSA containing 10% goat serum at 4° C. Cells were rinsed with PBS/BSA and incubated with FITC-conjugated goat anti-human Fab or anti-mouse IgG secondary antibodies (Jackson Immunoresearch, West Grove, Pa.), rinsed again, and analyzed on a FACScalibur flow cytometer (Becton Dickinson, Franklin Lakes, N.J.) using CellQuest™ Software.

[5] = target: T3, mouse TEM8 (293/mTEM8 cells) (Mus musculus, UniProt Q9CZ52); test: Flow cytometry binding to 293/mTEM8 cells
T3 construct: expressed in transfected cells
Protocol: 293 cells were obtained from ATCC. 293 cells were cultured in DMEM supplemented with 10% FBS. 293 cells expressing mouse (293-mTEM8) or a flag-tagged human TEM8 (293/Flag-huTEM8) were generated by lipofectamine 2000 mediated stable transfection of 293 cells with a mTEM8/pcDNA3 or a Flag-huTEM8/pcDNA3 expression vector (Yang et al., Biochim Biophys Acta 1813(1):39-49, 2011). Because transfected cells expressed variable levels of TEM8 (see 293/mTEM8 cells in FIG. 8C) they were subsequently enriched for surface expression by florescence activated cell sorting (FACS) using anti-AF344 (293/mTEM8) (Yang et al., Biochim Biophys Acta 1813(1):39-49, 2011) or anti-FLAG antibodies (293/Flag-hTEM8) (M2 clone, Sigma).
as §1

T3 sequence (Q9CZ52 31-562): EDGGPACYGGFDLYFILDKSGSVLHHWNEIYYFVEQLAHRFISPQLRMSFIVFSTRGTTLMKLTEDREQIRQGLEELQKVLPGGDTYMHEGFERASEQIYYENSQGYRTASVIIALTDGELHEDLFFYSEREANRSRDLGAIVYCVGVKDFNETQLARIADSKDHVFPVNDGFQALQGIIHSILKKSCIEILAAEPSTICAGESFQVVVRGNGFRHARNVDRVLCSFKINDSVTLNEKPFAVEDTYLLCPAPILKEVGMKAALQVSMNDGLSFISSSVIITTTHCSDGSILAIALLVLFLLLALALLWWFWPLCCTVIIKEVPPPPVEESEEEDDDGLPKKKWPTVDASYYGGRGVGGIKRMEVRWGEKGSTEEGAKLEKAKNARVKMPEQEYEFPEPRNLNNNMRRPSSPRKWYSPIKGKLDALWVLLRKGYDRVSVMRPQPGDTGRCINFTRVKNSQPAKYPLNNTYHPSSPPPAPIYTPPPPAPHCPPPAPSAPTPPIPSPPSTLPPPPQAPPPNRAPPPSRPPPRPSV
T2 sequence (Q9H6X2 33-564): as the sequence (Q9CZ52 31-562) above, with R40K, S104R, A241S, V297I, V327A, S458N, T468A, P471T, A493P counted along it

Row | Molecule | body weight in HCT116 tumor-bearing mice [1] | blocking of PA-FITC binding to CHO-TEM8 cells [2] | reactivity with TEM8 protein in ELISA [3] | binding to cells expressing human TEM8 [4] | binding to cells expressing mouse TEM8 [5]
1 | O=c1[nH]cc(F)c(=O)[nH]1 [Antibody 5-FU, 5-fluorouracil] | small, albeit non-significant, reduction in body weight | – | – | – | –
2 | CCc1c2c(nc3ccc(OC(=O)N4CCC(N5CCCCC5)CC4)cc13)-c1cc3c(c(=O)n1C2)COC(=O)[C@]3(O)CC [IRT, irinotecan] | small, albeit non-significant, reduction in body weight | – | – | – | –
3 | B1 | – | neutralize binding of PA to its cell surface receptor, TEM8 | react | react | react
4 | B2 | – | neutralize binding of PA to its cell surface receptor, TEM8 | react | react | react
5 | B3 | – | neutralize binding of PA to its cell surface receptor, TEM8 | react | react | react
6 | B4 | – | neutralize binding of PA to its cell surface receptor, TEM8 | react | react | react
7 | B5 | – | – | react | react | react

From patent publication US9181340B2, “TEM8 antibodies, conjugates thereof, and their use” (The United States of America, as represented by the …, priority 2011, dated 2015)
